The target in this test is AvrLm10B_like2‐RFP (Leptosphaeria maculans 'brassicae'). Description: FRET or BRET. (Bioluminescence resonance energy transfer reports proximity on the nanometre scale.)

In turn, AvrLm10A_like2‐GFP (natural protein) gave an FRET efficiency E of 32.1% and a donor (GFP) mean fluorescence lifetime τ with the acceptor of 1.89 ns.
